The test deals with mutant form of α-Gal A expressed in HEK-293 cells. Briefly: HEK assay (GLP HEK / Migalastat Amenability Assay): α-Gal A activity in lysates of transiently transfected HEK-293 cells incubated with or without 10 μM migalastat. It is filed as cell-based, human. To be noted: for Absolute increase (% WT) / Relative increase: 10 μM migalastat versus baseline; for Baseline α-Gal A activity (% WT): absence of migalastat; for Baseline α-Gal A activity (% WT) / 10 μM migalastat α-Gal A activity (% WT): percentage of baseline wild-type α-Gal A activity; for Baseline α-Gal A activity (% WT) / Baseline α-Gal A activity / 10 μM migalastat α-Gal A activity / 10 μM migalastat α-Gal A activity (% WT): mean ± SEM; for Baseline α-Gal A activity / 10 μM migalastat α-Gal A activity: lysates of HEK-293 cells transiently transfected with the mutant form; for Baseline α-Gal A activity: incubated 5 days in absence of migalastat; for 10 μM migalastat α-Gal A activity: incubated 5 days with 10 μM migalastat; for 10 μM migalastat α-Gal A activity (% WT): with 10 μM migalastat, 5 days. Summed up: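 Activity reported as 4-MU released (nmol/mg/hr), mean±SEM, from lysates of transiently transfected HEK-293 cells expressing mutant α-Gal A, cultured with or without 10 μM migalastat.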

Positions count from the first letter of the chain named. Numbers in names are those of the source.

B1: A307V (protein)
chain: MQLRNPELHLGCALALRFLALVSWDIPGARALDNGLARTPTMGWLHWERFMCNLDCQEEPDSCISEKLFMEMAELMVSEGWKDAGYEYLCIDDCWMAPQRDSEGRLQADPQRFPHGIRQLANYVHSKGLKLGIYADVGNKTCAGFPGSFGYYDIDAQTFADWGVDLLKFDGCYCDSLENLADGYKHMSLALNRTGRSIVYSCEWPLYMWPFQKPNYTEIRQYCNHWRNFADIDDSWKSIKSILDWTSFNQERIVDVAGPGGWNDPDMLVIGNFGLSWNQQVTQMALWAIMAAPLFMSNDLRHISPQVKALLQDKDVIAINQDPLGKQGYQLRQGDNFEVWERPLSGLAWAVAMINRQEIGGPRSYTIAVASLGKGVACNPACFITQLLPVKRKLGFYEWTSRLRSHINPTGTVLLQLENTMQMSLKDLL
B1: the “Absolute increase (% WT)” value came to 34.7 % WT, the Relative increase was determined as 2.3, the “Baseline α-Gal A activity (% WT)” value was 27.5 ± 2 % WT and the “Baseline α-Gal A activity” value came to 11478 ± 1200 nmol/mg/h. Further, the “10 μM migalastat α-Gal A activity” value was found to be 25989 ± 2015 nmol/mg/h and the “10 μM migalastat α-Gal A activity (% WT)” value was found to be 62.2 ± 3.3 % WT.

B2: D315A (protein)
chain: B1 chain with V307A, D315A
Regarding B2, the “Absolute increase (% WT)” value was 25.1 % WT, the Relative increase worked out at 1.3, the “Baseline α-Gal A activity (% WT)” value was determined as 68.3 ± 4.8 % WT and the “Baseline α-Gal A activity” value amounted to 18519 ± 1370 nmol/mg/h. The “10 μM migalastat α-Gal A activity” value was determined as 24758 ± 1512 nmol/mg/h and the “10 μM migalastat α-Gal A activity (% WT)” value came to 93.4 ± 7 % WT.

B3: Q312L (protein)
chain: B1 chain with V307A, Q312L
B3: the “Absolute increase (% WT)” value was found to be 21.3 % WT, the Relative increase turned out to be 1.4, the “Baseline α-Gal A activity (% WT)” value is 50.1 ± 4.1 % WT and the “Baseline α-Gal A activity” value is 16986 ± 1428 nmol/mg/h. Also, the “10 μM migalastat α-Gal A activity” value amounted to 23967 ± 1400 nmol/mg/h and the “10 μM migalastat α-Gal A activity (% WT)” value worked out at 71.5 ± 4.6 % WT.

B4: L310I (protein)
chain: B1 chain with V307A, L310I
On to B4, for which the “Absolute increase (% WT)” value was determined as 19.6 % WT, the Relative increase was found to be 1.3, the “Baseline α-Gal A activity (% WT)” value was found to be 72.8 ± 3.6 % WT and the “Baseline α-Gal A activity” value turned out to be 31871 ± 2599 nmol/mg/h. Further, the “10 μM migalastat α-Gal A activity” value is 40310 ± 3345 nmol/mg/h and the “10 μM migalastat α-Gal A activity (% WT)” value stood at 92.4 ± 5.1 % WT.

B5: K314N (protein)
chain: B1 chain with V307A, K314N
As for B5, the “Absolute increase (% WT)” value is 10.8 % WT, the Relative increase came out at 1.2, the “Baseline α-Gal A activity (% WT)” value is reported as 39.1 ± 3.4 % WT and the “Baseline α-Gal A activity” value was found to be 14205 ± 2418 nmol/mg/h. Further, the “10 μM migalastat α-Gal A activity” value was 17364 ± 2225 nmol/mg/h and the “10 μM migalastat α-Gal A activity (% WT)” value turned out to be 49.9 ± 2.6 % WT.

B6: A309D (protein)
chain: B1 chain with V307A, A309D
For the molecule B6, the “Absolute increase (% WT)” value is listed as 17.6 % WT, the Relative increase is reported as 1.2, the “Baseline α-Gal A activity (% WT)” value was 78.3 ± 5.2 % WT and the “Baseline α-Gal A activity” value stood at 31696 ± 3036 nmol/mg/h. Moreover, the “10 μM migalastat α-Gal A activity” value worked out at 38325 ± 2376 nmol/mg/h and the “10 μM migalastat α-Gal A activity (% WT)” value is on record as 95.8 ± 3.7 % WT.

B7: K308R (protein)
chain: B1 chain with V307A, K308R
Regarding B7, the “Absolute increase (% WT)” value is 20.3 % WT, the Relative increase is recorded as 1.3, the “Baseline α-Gal A activity (% WT)” value stood at 68.9 ± 4.3 % WT and the “Baseline α-Gal A activity” value worked out at 27103 ± 1767 nmol/mg/h. Further, the “10 μM migalastat α-Gal A activity” value came out at 35824 ± 2438 nmol/mg/h and the “10 μM migalastat α-Gal A activity (% WT)” value amounted to 89.1 ± 4.5 % WT.

B8: D313V (protein)
chain: B1 chain with V307A, D313V
On to B8, for which the “Absolute increase (% WT)” value is listed as 6.7 % WT, the Relative increase came to 3.9, the “Baseline α-Gal A activity (% WT)” value amounted to 2.9 ± 0.2 % WT and the “Baseline α-Gal A activity” value came out at 894 ± 33 nmol/mg/h. Further, the “10 μM migalastat α-Gal A activity” value was 3480 ± 580 nmol/mg/h and the “10 μM migalastat α-Gal A activity (% WT)” value worked out at 9.6 ± 0.9 % WT.

B9: A309T (protein)
chain: B1 chain with V307A, A309T
Consider B9, for which the “Absolute increase (% WT)” value worked out at 18.6 % WT, the Relative increase is reported as 1.2, the “Baseline α-Gal A activity (% WT)” value came out at 74.1 ± 4.6 % WT and the “Baseline α-Gal A activity” value stood at 29214 ± 1907 nmol/mg/h. The “10 μM migalastat α-Gal A activity” value was determined as 36228 ± 1841 nmol/mg/h and the “10 μM migalastat α-Gal A activity (% WT)” value is listed as 92.7 ± 4.8 % WT.

B10: L311I (protein)
chain: B1 chain with V307A, L311I
As for B10, the “Absolute increase (% WT)” value worked out at 23.2 % WT, the Relative increase was 2.9, the “Baseline α-Gal A activity (% WT)” value amounted to 12.1 ± 0.8 % WT and the “Baseline α-Gal A activity” value was 4020 ± 235 nmol/mg/h. Besides, the “10 μM migalastat α-Gal A activity” value was found to be 11558 ± 781 nmol/mg/h and the “10 μM migalastat α-Gal A activity (% WT)” value was found to be 35.3 ± 3.1 % WT.

B11: K314E (protein)
chain: B1 chain with V307A, K314E
Consider B11, for which the “Absolute increase (% WT)” value is on record as 11.0 % WT, the Relative increase worked out at 1.3, the “Baseline α-Gal A activity (% WT)” value is reported as 37.7 ± 2.5 % WT and the “Baseline α-Gal A activity” value worked out at 13026 ± 1767 nmol/mg/h. The “10 μM migalastat α-Gal A activity” value is 16765 ± 2098 nmol/mg/h and the “10 μM migalastat α-Gal A activity (% WT)” value is 48.7 ± 2.8 % WT.

B12: D313E (protein)
chain: B1 chain with V307A, D313E
In the case of B12, the “Absolute increase (% WT)” value came out at 13.2 % WT, the Relative increase came to 1.3, the “Baseline α-Gal A activity (% WT)” value worked out at 42.5 ± 2.3 % WT and the “Baseline α-Gal A activity” value was found to be 14321 ± 1579 nmol/mg/h. In addition, the “10 μM migalastat α-Gal A activity” value came out at 18273 ± 1330 nmol/mg/h and the “10 μM migalastat α-Gal A activity (% WT)” value is recorded as 55.7 ± 1.9 % WT.

B13: Q312E (protein)
chain: B1 chain with V307A, Q312E
In the case of B13, the “Absolute increase (% WT)” value worked out at 15.1 % WT, the Relative increase is 4.6, the “Baseline α-Gal A activity (% WT)” value is reported as 4.1 ± 0.2 % WT and the “Baseline α-Gal A activity” value was determined as 1365 ± 57 nmol/mg/h. The “10 μM migalastat α-Gal A activity” value was 6331 ± 466 nmol/mg/h and the “10 μM migalastat α-Gal A activity (% WT)” value worked out at 19.2 ± 1.7 % WT.

B14: K314T (protein)
chain: B1 chain with V307A, K314T
With B14, the “Absolute increase (% WT)” value stood at 17.9 % WT, the Relative increase was 1.2, the “Baseline α-Gal A activity (% WT)” value is on record as 75.9 ± 4.4 % WT and the “Baseline α-Gal A activity” value amounted to 25162 ± 2701 nmol/mg/h. Further, the “10 μM migalastat α-Gal A activity” value worked out at 30501 ± 2332 nmol/mg/h and the “10 μM migalastat α-Gal A activity (% WT)” value is 93.8 ± 4.5 % WT.

B15: Q312K (protein)
chain: B1 chain with V307A, Q312K
Take B15: the “Absolute increase (% WT)” value stood at 15.5 % WT, the Relative increase is recorded as 1.8, the “Baseline α-Gal A activity (% WT)” value is 19.7 ± 1.4 % WT and the “Baseline α-Gal A activity” value is 6733 ± 510 nmol/mg/h. The “10 μM migalastat α-Gal A activity” value is 11934 ± 624 nmol/mg/h and the “10 μM migalastat α-Gal A activity (% WT)” value is 35.2 ± 1.8 % WT.

B16: K308Q (protein)
chain: B1 chain with V307A, K308Q
As to B16, the “Absolute increase (% WT)” value turned out to be 30.0 % WT, the Relative increase came out at 1.5, the “Baseline α-Gal A activity (% WT)” value came out at 59.1 ± 3.8 % WT and the “Baseline α-Gal A activity” value is 24208 ± 1996 nmol/mg/h. In addition, the “10 μM migalastat α-Gal A activity” value was found to be 35663 ± 2680 nmol/mg/h and the “10 μM migalastat α-Gal A activity (% WT)” value was 89.1 ± 5.5 % WT.

B17: K308I (protein)
chain: B1 chain with V307A, K308I
B17: the “Absolute increase (% WT)” value is on record as 24.2 % WT, the Relative increase was 1.5, the “Baseline α-Gal A activity (% WT)” value is on record as 48.6 ± 3.9 % WT and the “Baseline α-Gal A activity” value is 19195 ± 1555 nmol/mg/h. Besides, the “10 μM migalastat α-Gal A activity” value turned out to be 29251 ± 2026 nmol/mg/h and the “10 μM migalastat α-Gal A activity (% WT)” value stood at 72.7 ± 3.6 % WT.

B18: K314M (protein)
chain: B1 chain with V307A, K314M
Take B18: the “Absolute increase (% WT)” value came to 15.9 % WT, the Relative increase amounted to 1.3, the “Baseline α-Gal A activity (% WT)” value amounted to 50.9 ± 3.8 % WT and the “Baseline α-Gal A activity” value stood at 18231 ± 2878 nmol/mg/h. In addition, the “10 μM migalastat α-Gal A activity” value was determined as 23043 ± 2838 nmol/mg/h and the “10 μM migalastat α-Gal A activity (% WT)” value was 66.8 ± 3.8 % WT.
